Results on eight molecules are retold here after US20150203579A1 (Regeneron, published 2015).

For orientation: Kd means the equilibrium constant for the complex coming apart. One may read the koff as the rate constant with which the complex falls apart. The kon is a measure of how fast the partners come together. One may read the t½ as the time needed for the level to fall by half in the phase considered.

Where a chain is given by its changes, count along the chain named.

To fix the notation:
T1: recombinant cynomolgus monkey PD-1 expressed with a C-terminal myc-myc-hexahistidine tag (cynomolgus monkey (Macaca fascicularis))
T1 construct: monomeric; also called MfPD-1-MMH
T1 chain: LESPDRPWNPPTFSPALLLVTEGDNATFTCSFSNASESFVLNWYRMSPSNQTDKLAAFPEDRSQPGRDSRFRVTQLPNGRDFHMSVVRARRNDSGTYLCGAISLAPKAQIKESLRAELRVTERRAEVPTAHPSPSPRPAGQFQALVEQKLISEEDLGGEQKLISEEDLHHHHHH

B1: H2aM7795N (antibody, mouse IgG2a, V domains shown)
VH: EVQVVESGGGLVEPGRSLRLSCKASGFTFDDYAMHWVRQTPGKALEWVSGINWSGNNIGYADSVKGRFTISKDDAKNSLYLQMNSLRPEDTALYYCTKDISITGTLDAFDVWGQGTMVTVSS
VL: DIQMTQSPISVSASVGDRVTITCRASQGISNWLAWYQQKPGIAPKLLIYSASSLQSGVPSRFRGSGSGTDFTLTIGSLQPEDFATYYCQQAHSFPLTFGGGTKVEIK
notes: Human variable regions, mouse IgG2a Fc; also called H2M7795N
B2: H2aM7794N (antibody, V domains shown)
VH: QLQLQESGPDLVKPSDTLSLTCTVSDDSISSTTYYWAWIRQPPGKGLEWIGSMSYNGNNYYNPSLKSRVAISAGTSQKQFSLKLTSVTAADTAVYHCARHLGYNGNWYPFDFWGQGILVTVSS
VL: not shown
notes: Human variable regions, mouse IgG2a Fc; also called H2M7794N
B3: H2aM7780N (antibody, mouse IgG2a, V domains shown)
VH: QVQLVESGGGVVQSGRSLRLSCAASGFTFSSYGMHWVRQAPGKGLEWVAVIWYDGSNIYYSDSVKGRFTISRANSKNTLYLQMNSLRAEDTAVYYCARPGHWNYFFEYWGQGTLVTVSS
VL: DIQMTQSPSSLSASVGDRVTITCRASQSINNYLNWYQQKPGKAPKLLIYTASSLQSGVPSRFSGSGSGTDFTLTISSLQPEDFATYYCQQSYSTPPLTFGQGTQLEIK
notes: Human variable regions, mouse IgG2a Fc (H2aM prefix); also called H2M7780N
B4: H1M7789N (antibody, mouse IgG1, V domains shown)
VH: EVQLLESGGGLVQPGGSLRLSCSASGFTFSSYTMNWVRQAPGKGLEWVSGISDTGGNTYYTDSVKGRFTVSRDNSKNTLSLQMNSLRAEDTAVYYCAKDQGGSYPYYFHYWGQGSLVTVSS
VL: B3 VL with N30S, N31S, N34I, K42T, L46F, T50A, S65C, L97I, Q104R
notes: Human variable regions, mouse IgG1 Fc
B5: H2aM7788N (antibody, mouse IgG2a, V domains shown)
VH: EVQLVESGGGLVQPGGSLRLSCGASGFTFRNYDMHWVRQITGKGLEWVSAIGSAGDTYYPDSVKGRFTISRENAKNSLYLQMNSLRVGDTAVYYCTRDIHCSSTRCYGMDVWGQGTTVTVSS
VL: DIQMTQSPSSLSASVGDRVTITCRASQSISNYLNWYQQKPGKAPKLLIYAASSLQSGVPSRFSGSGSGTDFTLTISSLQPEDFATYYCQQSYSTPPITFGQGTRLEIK
notes: Human variable regions, mouse IgG2a Fc; also called H2M7788N
B6: H2aM7791N (antibody, mouse IgG2a, V domains shown)
VH: QMQLQQWGAGLLKPSETLSLTCVVYGGSLNGYYWSWIRQSPGKGLEWIGEIDHSGSTNYNPSLKNRVTMSVDTSKIQFSLKLTSVTVADTAVYYCAREGLLPFDYWGQGTLVTVSS
VL: EIVLTQSPGTLSLSPGERVTLSCRASQSVYSNYLAWYQQNPGQAPRLLIYAASNRATGIPDRFSGSGSGTDFTLTISRLEPEDFAVYYCHQYATSPWTFGQGTKVEIK
notes: Human variable regions, mouse IgG2a Fc; also called H2M7791N
B7: H2aM7798N (antibody, mouse IgG2a, V domains shown)
VH: EVQLLESGGVLVQPGGSLRLSCAASGFTFSNFGMTWVRQAPGKGLEWVSGISGGGRDTYFADSVKGRFTISRDNSKNTLYLQMNSLKGEDTAVYYCVKWGNIYFDYWGQGTLVTVSS
VL: DIQMTQSPSSLSASVGDSITITCRASLSINTFLNWYQQKPGKAPNLLIYAASSLHGGVPSRFSGSGSGTDFTLTIRTLQPEDFATYYCQQSSNTPFTFGPGTVVDFR
notes: Human variable regions, mouse IgG2a Fc; also called H2M7798N
B8: H2aM7796N (antibody, mouse IgG2a, V domains shown)
VH: QVQLVESGGGVVQPGRSLRLSCAASGFTFSSYGMHWVRQAPGKGLEWVAIIWSDGDSEYNLDSVKGRFTISRDNSKNTLYLQMNSLRVEDSAVYYCARDRDLEDIWGQGTMVTVSS
VL: DIQMTQSPSSLSASVGDRVTITCRASQGIRNDLGWYQQKPGKAPKRLIYAASNLQSGVPSRFSGSGSGTEFTLTISSLQPEDFATYYCLQHNSYPLTFGGGTKVEIK
notes: Human variable regions, mouse IgG2a Fc; also called H2M7796N
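Wherever result is given: rates from fitting Biacore data for PD-1 binding to anti-PD-1 antibodies with a 1:1 model, KD computed as koff/kon and t½ as ln2/(60·koff).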

The target of the first assay is T1, recombinant cynomolgus monkey PD-1 …. Kind of assay: SPR, mAb captured, 37C. A general note: Surface plasmon resonance follows binding to a sensor surface in real time, without labels.
B1: the Kd stood at 60.2 nM, the koff was found to be 0.00389 s⁻¹, the kon stood at 64700 M⁻¹ s⁻¹ and the t½ is 3 min.
In the same order, the values of B2 are 302 nM, 0.0201 s⁻¹, 66600 M⁻¹ s⁻¹ and 0.6 min.
As to B3, the Kd turned out to be 60.5 nM, the koff was found to be 0.00138 s⁻¹, the kon worked out at 22900 M⁻¹ s⁻¹ and the t½ amounted to 8.3 min.
In the case of B4, the Kd was 8.5 nM, the koff is 0.000408 s⁻¹, the kon amounted to 47900 M⁻¹ s⁻¹ and the t½ was determined as 28 min.
In the same order, the values of B5 are 174 nM, 0.00328 s⁻¹, 18800 M⁻¹ s⁻¹ and 3.5 min.
On to B6, for which the Kd was found to be 50.5 nM, the koff came to 0.00191 s⁻¹, the kon came out at 37900 M⁻¹ s⁻¹ and the t½ worked out at 6 min.
In the same order, the values of B7 are 7 nM, 0.000993 s⁻¹, 142000 M⁻¹ s⁻¹ and 12 min.

In the next assay the target is T2, human PD-1 dimer (human PD-1-mFc or human PD-1-hFc) (human, UniProt Q15116 25-170).
T2 construct: also called hPD-1-mFc; hPD1-hFc
T2 sequence (Q15116 25-170 C93S): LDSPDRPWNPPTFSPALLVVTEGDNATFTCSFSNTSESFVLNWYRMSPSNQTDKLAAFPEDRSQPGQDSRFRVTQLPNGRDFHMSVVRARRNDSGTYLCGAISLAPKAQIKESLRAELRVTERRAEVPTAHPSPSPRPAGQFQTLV
Kind of assay: SPR, mAb captured, 25C.
On to B1, for which the Kd turned out to be 0.227 nM, the koff was determined as 3.14e-05 s⁻¹, the kon was determined as 138000 M⁻¹ s⁻¹ and the t½ worked out at 368 min.
In the case of B2, binding was put at a Kd of 0.593 nM, the koff was 0.000106 s⁻¹, the kon amounted to 179000 M⁻¹ s⁻¹ and the t½ is 109 min.
Turning to B3, the Kd stood at 0.236 nM, the koff was found to be 9.94e-06 s⁻¹, the kon amounted to 42100 M⁻¹ s⁻¹ and the t½ turned out to be 1160 min.
B4 returned a Kd of 1.1 nM, a koff of 4.31e-05 s⁻¹, a kon of 39100 M⁻¹ s⁻¹ and a t½ of 268 min.
In the same order, the values of B5 are 0.315 nM, 2.82e-05 s⁻¹, 89400 M⁻¹ s⁻¹ and 410 min.
On to B6, for which binding was characterised by a dissociation constant (Kd) of 2.49 nM, the koff was 0.000101 s⁻¹, the kon was found to be 40500 M⁻¹ s⁻¹ and the t½ stood at 114 min.
With B7, the Kd was 0.0655 nM, the koff turned out to be 2.29e-05 s⁻¹, the kon came to 350000 M⁻¹ s⁻¹ and the t½ was found to be 505 min.
In the same order, the values of B8 are 3.32 nM, 8.67e-05 s⁻¹, 26100 M⁻¹ s⁻¹ and 133 min.

The next assay addresses T1, recombinant cynomolgus monkey PD-1 …. Kind of assay: SPR, mAb captured, 25C.
B1: the Kd turned out to be 20.1 nM, the koff was determined as 0.000889 s⁻¹, the kon was determined as 44400 M⁻¹ s⁻¹ and the t½ is 13 min.
Regarding B2, the Kd is 166 nM, the koff came out at 0.00599 s⁻¹, the kon is 36000 M⁻¹ s⁻¹ and the t½ came to 1.9 min.
In the same order, the values of B3 are 31.5 nM, 0.000315 s⁻¹, 10000 M⁻¹ s⁻¹ and 37 min.
In the same order, the values of B4 are 7.89 nM, 0.000123 s⁻¹, 15500 M⁻¹ s⁻¹ and 94 min.
In the same order, the values of B5 are 76.6 nM, 0.000662 s⁻¹, 8630 M⁻¹ s⁻¹ and 17 min.
With B6, the dissociation constant Kd is 34.4 nM, the koff worked out at 0.000553 s⁻¹, the kon was 16100 M⁻¹ s⁻¹ and the t½ stood at 21 min.
Take B7: the Kd came out at 4.5 nM, the koff was 0.000393 s⁻¹, the kon was 87200 M⁻¹ s⁻¹ and the t½ is 29 min.
With B8, the binding result was “no binding (tested: up to 200 nM)”.

Another assay concerns the target T3, recombinant human PD-1 expressed with a C-terminal myc-myc-hexahistidine tag (human).
T3 construct: monomeric; also called hPD-1-MMH; human PD-1-MMH
Kind of assay: SPR, mAb captured, 37C.
Regarding B1, the Kd was found to be 67.8 nM, the koff is 0.00458 s⁻¹, the association rate constant (kon) amounted to 67500 M⁻¹ s⁻¹ and the t½ amounted to 2.5 min.
For B2, the Kd amounted to 66.1 nM, the koff was 0.00792 s⁻¹, the kon turned out to be 120000 M⁻¹ s⁻¹ and the t½ came to 1.5 min.
For the molecule B3, the Kd was determined as 55.8 nM, the koff worked out at 0.00152 s⁻¹, the kon stood at 27200 M⁻¹ s⁻¹ and the t½ stood at 7.6 min.
Regarding B4, the dissociation constant (Kd) worked out at 6.52 nM, the koff was found to be 0.000295 s⁻¹, the kon was found to be 45300 M⁻¹ s⁻¹ and the t½ is 39 min.
Turning to B5, the dissociation constant (Kd) came out at 51.9 nM, the koff is 0.00149 s⁻¹, the kon was found to be 28800 M⁻¹ s⁻¹ and the t½ is 7.7 min.
On to B6, for which the Kd amounted to 53.5 nM, the koff came out at 0.00224 s⁻¹, the association rate constant (kon) came out at 41800 M⁻¹ s⁻¹ and the t½ stood at 5.2 min.
In the same order, the values of B7 are 3.79 nM, 0.000656 s⁻¹, 173000 M⁻¹ s⁻¹ and 18 min.
Regarding B8, the dissociation constant Kd amounted to 1510 nM, the koff came to 0.0165 s⁻¹, the association rate constant (kon) came to 10900 M⁻¹ s⁻¹ and the t½ was found to be 0.7 min.

The target of the next assay is T2, human PD-1 dimer (human PD-1-mFc or …). Kind of assay: SPR, mAb captured, 37C.
As to B1, the Kd worked out at 0.371 nM, the koff came to 6.13e-05 s⁻¹, the kon was determined as 165000 M⁻¹ s⁻¹ and the t½ is 188 min.
In the same order, the values of B2 are 0.452 nM, 0.000211 s⁻¹, 468000 M⁻¹ s⁻¹ and 55 min.
B3: the Kd was found to be 0.23 nM, the koff amounted to 2.29e-05 s⁻¹, the kon stood at 99400 M⁻¹ s⁻¹ and the t½ turned out to be 505 min.
In the same order, the values of B4 are at most 0.0917 nM, at most 1e-05 s⁻¹, 109000 M⁻¹ s⁻¹ and at least 1160 min.
As to B5, the Kd was determined as 0.163 nM, the koff stood at 2.13e-05 s⁻¹, the kon was 131000 M⁻¹ s⁻¹ and the t½ worked out at 542 min.
In the same order, the values of B6 are 3.59 nM, 0.000179 s⁻¹, 49800 M⁻¹ s⁻¹ and 65 min.
In the same order, the values of B7 are 0.028 nM, 1.4e-05 s⁻¹, 490000 M⁻¹ s⁻¹ and 825 min.
In the same order, the values of B8 are 19.6 nM, 0.000434 s⁻¹, 22100 M⁻¹ s⁻¹ and 27 min.
